Experimental data reported in patent US20240109963A1.

Legend:
[1] = target: full-length human Claudin 18.2 on MIA PaCa-2 cells (MIA PaCa-2+ Claudin 18.2) (human) (UniProt P56856); test: cell-based or functional assay
[2] = target: Claudin 18.2 on CHO cells (CHO+ Claudin 18.2) (UniProt P56856); test: flow cytometry on Claudin 18.2-expressing CHO cells (summary table)
CD3 on Jurkat cells = test: flow cytometry on Jurkat cells, CD3 binding (T cell) (summary table)
Chain of CD3 on Jurkat cells (P07766 23-207, chain 1 of 3): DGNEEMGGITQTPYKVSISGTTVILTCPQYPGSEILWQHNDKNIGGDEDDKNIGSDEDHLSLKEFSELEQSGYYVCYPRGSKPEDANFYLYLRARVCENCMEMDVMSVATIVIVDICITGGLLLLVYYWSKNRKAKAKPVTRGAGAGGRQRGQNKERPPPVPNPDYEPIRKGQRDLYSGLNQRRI
Chain of CD3 on Jurkat cells (P09693 23-182, chain 2 of 3, further chain): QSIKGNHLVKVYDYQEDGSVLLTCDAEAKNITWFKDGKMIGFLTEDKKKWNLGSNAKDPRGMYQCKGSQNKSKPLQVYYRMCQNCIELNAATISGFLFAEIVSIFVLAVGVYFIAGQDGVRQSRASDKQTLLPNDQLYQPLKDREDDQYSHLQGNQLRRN
Chain of CD3 on Jurkat cells (P04234 22-171, chain 3 of 3, further chain): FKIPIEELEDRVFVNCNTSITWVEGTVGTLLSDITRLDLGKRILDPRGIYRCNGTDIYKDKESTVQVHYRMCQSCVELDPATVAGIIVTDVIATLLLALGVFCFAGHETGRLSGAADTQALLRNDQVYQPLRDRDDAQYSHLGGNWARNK

Chain of full-length human Claudin 18.2 on MIA PaCa-2 cells (MIA PaCa-2+ Claudin 18.2) (human) (P56856 other isoform, or with tags, fused parts or gaps limits assumed): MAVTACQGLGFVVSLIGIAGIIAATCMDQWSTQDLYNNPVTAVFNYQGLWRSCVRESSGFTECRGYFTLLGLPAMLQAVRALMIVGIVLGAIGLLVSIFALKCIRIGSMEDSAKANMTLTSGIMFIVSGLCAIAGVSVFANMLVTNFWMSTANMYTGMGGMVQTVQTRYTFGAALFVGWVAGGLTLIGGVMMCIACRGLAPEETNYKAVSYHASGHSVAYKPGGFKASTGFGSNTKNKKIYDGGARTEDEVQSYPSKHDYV
Chain of Claudin 18.2 on CHO cells (CHO+ Claudin 18.2) (P56856 other isoform, or with tags, fused parts or gaps limits assumed): as above

**Q.** AMG910 analog (bispecific antibody) was tested. Which T cell activation EC50 (CD69-positive cells) [1] did it give?
**A.** 0.0345 µg/mL

**Q.** And the T cell activation EC50 (CD69-positive cells), unpurified supernatant [1]?
**A.** 0.0577 µg/mL

**Q.** And the EC50 [2]?
**A.** 0.047 µg/mL

**Q.** And the EC50 (CD3 on Jurkat cells)?
**A.** 0.485 µg/mL
